The supplement of paper PMC10724198
± gives the standard deviation of the averaged measurements.

Experiments:
Saccharomyces cerevisiae [1] = test: protein stability index of tFT-peptide fusion (C-terminal peptide) (PSI (0-1 scale)); higher = more stable (slower turnover)
Experimental: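 MPS profiling in S. cerevisiae of the tFT-X12 degron library: putative degron peptides plus stable controls, 12 aa, fused to the C-terminus of a sfGFP-mCherry timer. Cells are FACS-sorted into 8 mCherry/sfGFP bins and deep-sequenced. PSI runs from 0 (unstable) to 1 (stable). Backgrounds are wild type, das1Δ and doa10Δ at 30 °C, and wild type, das1Δ, cdc34-1 and cdc53-1 at 37 °C; 2-3 technical replicates each.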

Saccharomyces cerevisiae [2] = test: as above; settings: genetic background: wild type; temperature: 30 C
[3] = genetic background: cdc34-1, temperature: 37 C
[4] = genetic background: cdc53-1, temperature: 37 C
[5] = genetic background: das1 deletion, temperature: 30 C
[6] = genetic background: das1 deletion, temperature: 37 C
[7] = genetic background: doa10 deletion, temperature: 30 C
[8] = genetic background: wild type, temperature: 30 C
[9] = genetic background: wild type, temperature: 37 C
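Further: PSI is a weighted mean of sequencing reads over stability bins, variants kept only with over 10 reads, mCherry proximal and sfGFP distal, peptide attached via GGGS linker.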

| Sequence | protein stability index (Saccharomyces cerevisiae [1]; [3]) | protein stability index (Saccharomyces cerevisiae [1]; [4]) | protein stability index (Saccharomyces cerevisiae [1]; [5]) | protein stability index (Saccharomyces cerevisiae [1]; [6]) | protein stability index (Saccharomyces cerevisiae [1]; [7]) | protein stability index (Saccharomyces cerevisiae [1]; [8]) | protein stability index (Saccharomyces cerevisiae [1]; [9]) | protein stability index (Saccharomyces cerevisiae [2]) |
| --- | --- | --- | --- | --- | --- | --- | --- | --- |
| GSLFANYNLKLF | 0.62289 ± 0.00034 | 0.724 ± 0.017 | 0.648 ± 0.06 | 0.771 ± 0.033 | 0.108 ± 0.017 | 0.106 ± 0.028 | 0.211 ± 0.013 | 0.163 ± 0.025 |
| GSVHLTKERHLV | 0.66 ± 0.028 | 0.74 ± 0.03 | 0.648 ± 0.032 | 0.7436 ± 0.0024 | 0.207 ± 0.0061 | 0.241 ± 0.036 | 0.499 ± 0.0063 | 0.319 ± 0.016 |
| GVAILFTFFRLL | 0.228 ± 0.086 | 0.526 ± 0.0023 | 0.456 ± 0.025 | 0.612 ± 0.02 | 0.0564 ± 0.016 | 0.0756 ± 0.0073 | 0.0737 ± 0.012 | 0.159 ± 0.022 |
| GVGHAWHYFCVC | 0.614 ± 0.044 | 0.7347 ± 0.0032 | 0.608 ± 0.018 | 0.74764 ± 0.00017 | 0.197 ± 0.017 | 0.247 ± 0.021 | 0.431 ± 0.0045 | 0.357 ± 0.025 |
| GVLIFLSFQPIA | 0.539 ± 0.021 | 0.617 ± 0.023 | 0.429 ± 0.03 | 0.599 ± 0.0088 | 0.3783 ± 0.0017 | 0.414 ± 0.013 | 0.556 ± 0.0093 | 0.431 ± 0.037 |
| GVLRMAPGRVMC | 0.599 ± 0.031 | 0.704 ± 0.0083 | 0.598 ± 0.024 | 0.702 ± 0.016 | 0.159 ± 0.02 | 0.175 ± 0.0027 | 0.345 ± 0.04 | 0.268 ± 0.032 |
| GVQFSVKWVKLG | 0.519 ± 0.022 | 0.7 ± 0.0093 | 0.616 ± 0.014 | 0.734 ± 0.0015 | 0.106 ± 0.011 | 0.109 ± 0.025 | 0.18 ± 0.0065 | 0.225 ± 0.019 |
| GVSLQLHVAVLI | 0.72 ± 0.39 | – | 0.483 ± 0.053 | 0.542 ± 0.056 | 0.275 ± 0.036 | 0.278 ± 0.0093 | 0.4284 ± 0.0018 | 0.44 ± 0.047 |
| GVSLRVFVVSVC | 0.137 ± 0.02 | 0.162 ± 0.015 | 0.219 ± 0.02 | 0.316 ± 0.0044 | 0.108 ± 0.005 | 0.122 ± 0.018 | 0.142 ± 0.0047 | 0.212 ± 0.053 |
| GVVWPLGWVWVE | 0.699 ± 0.016 | 0.7315 ± 0.0022 | 0.614 ± 0.012 | 0.7383 ± 0.0066 | 0.368 ± 0.014 | 0.421 ± 0.025 | 0.615 ± 0.0074 | 0.527 ± 0.05 |
| GWRFCVFIYVHR | 0.0703 ± 0.011 | 0.0688 ± 0.0038 | 0.115 ± 0.033 | 0.196 ± 0.012 | 0.213 ± 0.018 | 0.107 ± 0.015 | 0.186 ± 0.0085 | 0.179 ± 0.042 |
| GWVVVVCGVCCG | 0.178 ± 0.0072 | 0.22 ± 0.033 | 0.208 ± 0.026 | 0.307 ± 0.016 | 0.167 ± 0.0077 | 0.196 ± 0.024 | 0.28 ± 0.012 | 0.285 ± 0.011 |
| GYSMPVSFFFAL | 0.669 ± 0.057 | 0.779 ± 0.012 | 0.616 ± 0.017 | 0.745 ± 0.0082 | 0.201 ± 0.011 | 0.24 ± 0.017 | 0.453 ± 0.014 | 0.356 ± 0.0092 |
| HFASPPAPRSNL | 0.799 ± 0.051 | 0.819 ± 0.023 | 0.762 ± 0.03 | 0.81 ± 0.016 | 0.785 ± 0.032 | 0.785 ± 0.032 | 0.792 ± 0.014 | 0.765 ± 0.0023 |
| HFLLAFMLCFGQ | 0.4512 ± 0.0045 | 0.476 ± 0.0097 | 0.359 ± 0.039 | 0.504 ± 0.0076 | 0.336 ± 0.011 | 0.356 ± 0.021 | 0.476 ± 0.024 | 0.466 ± 0.044 |
| HLILWLFFVIVF | 0.237 ± 0.012 | 0.193 ± 0.047 | 0.216 ± 0.024 | 0.333 ± 0.0038 | 0.237 ± 0.012 | 0.186 ± 0.012 | 0.271 ± 0.0074 | 0.304 ± 0.23 |
| HLRWYITGIVWF | 0.4885 ± 0.0024 | – | 0.413 ± 0.11 | 0.671 ± 0.17 | 0.311 ± 0.019 | 0.359 ± 0.087 | 0.543 ± 0.017 | 0.4216 ± 0.00048 |
| HPRPRPPPLPPP | 0.4633 ± 0.00058 | 0.546 ± 0.019 | 0.504 ± 0.006 | 0.523 ± 0.021 | 0.544 ± 0.0083 | 0.487 ± 0.03 | 0.4943 ± 0.0044 | 0.508 ± 0.032 |
| HRARILLIRICP | 0.486 ± 0.024 | 0.517 ± 0.011 | 0.411 ± 0.024 | 0.64 ± 0.019 | 0.5034 ± 0.0046 | 0.42 ± 0.032 | 0.585 ± 0.029 | 0.415 ± 0.017 |
| HRFCAPSLSASD | 0.675 ± 0.007 | 0.722 ± 0.013 | 0.6628 ± 0.0047 | 0.7288 ± 0.0054 | 0.665 ± 0.024 | 0.666 ± 0.012 | 0.696 ± 0.0086 | 0.697 ± 0.062 |

| Sequence | protein stability index (Saccharomyces cerevisiae [1]; [3]) | protein stability index (Saccharomyces cerevisiae [1]; [4]) | protein stability index (Saccharomyces cerevisiae [1]; [5]) | protein stability index (Saccharomyces cerevisiae [1]; [6]) | protein stability index (Saccharomyces cerevisiae [1]; [7]) | protein stability index (Saccharomyces cerevisiae [1]; [8]) | protein stability index (Saccharomyces cerevisiae [1]; [9]) | protein stability index (Saccharomyces cerevisiae [2]) |
| --- | --- | --- | --- | --- | --- | --- | --- | --- |
| HVLALIFLYIPD | 0.43 ± 0.045 | 0.55 ± 0.032 | 0.33 ± 0.037 | 0.5422 ± 0.0044 | 0.317 ± 0.021 | 0.355 ± 0.019 | 0.501 ± 0.0067 | 0.4163 ± 0.0012 |
| HWVRLSSLAFVS | 0.2245 ± 0.0018 | 0.289 ± 0.011 | 0.289 ± 0.036 | 0.233 ± 0.0082 | 0.202 ± 0.022 | 0.183 ± 0.014 | 0.1895 ± 0.00075 | 0.176 ± 0.01 |
| IACISCLLCVVV | 0.608 ± 0.042 | 0.649 ± 0.038 | 0.479 ± 0.025 | 0.607 ± 0.017 | 0.479 ± 0.022 | 0.504 ± 0.0075 | 0.589 ± 0.0073 | 0.508 ± 0.015 |
| IEVACLLTAFCD | 0.22 ± 0.026 | 0.262 ± 0.0062 | 0.257 ± 0.028 | 0.225 ± 0.0027 | 0.282 ± 0.043 | 0.266 ± 0.033 | 0.209 ± 0.0052 | 0.251 ± 0.027 |
| IFCRCNSTVLLI | 0.547 ± 0.035 | 0.633 ± 0.013 | 0.483 ± 0.021 | 0.5959 ± 0.0016 | 0.365 ± 0.055 | 0.37 ± 0.018 | 0.522 ± 0.021 | 0.451 ± 0.024 |
| IFFYQLYVDRLC | 0.227 ± 0.05 | 0.292 ± 0.0067 | 0.229 ± 0.035 | 0.412 ± 0.011 | 0.0857 ± 0.012 | 0.0803 ± 0.01 | 0.0746 ± 0.0054 | 0.151 ± 0.059 |
| IFSGCRIALSVF | 0.0412 ± 0.013 | 0.052 ± 0.021 | 0.188 ± 0.018 | 0.165 ± 0.012 | 0.104 ± 0.0034 | 0.116 ± 0.01 | 0.0944 ± 0.039 | 0.181 ± 0.0085 |
| IFSTQMVRFSLL | 0.629 ± 0.052 | 0.7324 ± 0.0061 | 0.662 ± 0.0074 | 0.7692 ± 0.0033 | 0.261 ± 0.0058 | 0.272 ± 0.017 | 0.422 ± 0.018 | 0.362 ± 0.019 |
| IFVFVSFPSCVL | 0.603 ± 0.062 | 0.644 ± 0.022 | 0.56 ± 0.041 | 0.627 ± 0.0096 | 0.35 ± 0.0042 | 0.399 ± 0.026 | 0.568 ± 0.03 | 0.468 ± 0.012 |
| ILFWSLLVSTIR | 0.13 ± 0.031 | 0.223 ± 0.056 | 0.174 ± 0.034 | 0.263 ± 0.0027 | 0.137 ± 0.017 | 0.149 ± 0.035 | 0.266 ± 0.004 | 0.177 ± 0.082 |
| ILRAGITYVYAV | 0.515 ± 0.014 | 0.544 ± 0.036 | 0.325 ± 0.038 | 0.5463 ± 0.0033 | 0.264 ± 0.0082 | 0.296 ± 0.016 | 0.493 ± 0.013 | 0.399 ± 0.04 |
| ILVFHFWPFLVR | 0.411 ± 0.046 | 0.435 ± 0.015 | 0.351 ± 0.018 | 0.523 ± 0.018 | 0.418 ± 0.027 | 0.35 ± 0.017 | 0.503 ± 0.017 | 0.426 ± 0.04 |
| IPGGRPLLVEVR | 0.339 ± 0.02 | 0.384 ± 0.018 | 0.254 ± 0.044 | 0.518 ± 0.074 | 0.216 ± 0.0041 | 0.264 ± 0.033 | 0.439 ± 0.015 | 0.426 ± 0.035 |
| IRHALHFRVVAV | 0.505 ± 0.035 | 0.545 ± 0.016 | 0.432 ± 0.015 | 0.568 ± 0.0082 | 0.3943 ± 0.0036 | 0.419 ± 0.013 | 0.5286 ± 0.0022 | 0.48 ± 0.0076 |
| IRWCLVSVFYVV | 0.214 ± 0.028 | 0.364 ± 0.033 | 0.245 ± 0.033 | 0.444 ± 0.01 | 0.0753 ± 0.012 | 0.0978 ± 0.02 | 0.13554 ± 0.00011 | 0.192 ± 0.038 |
| ISAVLFFLYLSF | 0.163 ± 0.008 | 0.108 ± 0.019 | 0.24 ± 0.018 | 0.326 ± 0.0042 | 0.459 ± 0.035 | 0.246 ± 0.017 | 0.272 ± 0.009 | 0.308 ± 0.025 |
| IVVSSRFLGFFC | 0.53 ± 0.073 | 0.701 ± 0.07 | 0.62 ± 0.032 | 0.742 ± 0.0077 | 0.0947 ± 0.012 | 0.102 ± 0.012 | 0.18 ± 0.0083 | 0.2 ± 0.0025 |
| IWRGGSAVPMIC | 0.627 ± 0.075 | 0.686 ± 0.022 | 0.572 ± 0.025 | 0.721 ± 0.013 | 0.167 ± 0.0098 | 0.195 ± 0.023 | 0.351 ± 0.02 | 0.267 ± 0.058 |
| IYTLIINKSKAQ | 0.686 ± 0.024 | 0.685 ± 0.011 | 0.626 ± 0.046 | 0.696 ± 0.072 | 0.282 ± 0.024 | 0.362 ± 0.11 | 0.524 ± 0.017 | 0.429 ± 0.041 |
